In US20250197467A1 one finds Kd data, which are given here for 8 molecules.

Where a chain is given by its changes, count along the chain named.

For this assay, the target named is His-tagged human IL-18BP (human) (UniProt O95998). The experiment in a line: AlphaLISA of free IL-18BP. For orientation: Bead proximity is the source of the signal in Alpha formats.
His-tagged human IL-18BP (human), sequence (O95998 31-194): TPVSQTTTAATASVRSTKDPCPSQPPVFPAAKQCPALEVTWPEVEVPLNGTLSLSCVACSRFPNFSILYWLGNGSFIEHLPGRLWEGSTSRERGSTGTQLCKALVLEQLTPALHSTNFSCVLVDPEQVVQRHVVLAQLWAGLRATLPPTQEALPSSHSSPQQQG

B1: C325 + MMP9 (ligand)
chain: LAGGSGYFGKLKSKLSIIRNLNDQVLFIDQGNRPLFEDMTDSDARDNAPRTIFIISMYADSQPRGMAVAISVKCEKISTLSAENKIISFKEMNPPDNIKDTKSDIIFFQRSVPGHDNKMQFESSSYEGYFLAAEKERDLFKLILKKEDELGDRSIMFTVQNED
As to B1, the Kd turned out to be 158 nM.

B2: C318 + Matriptase (ligand)
chain: MAAEPVEDNSINFVAMKFIDNTLYFIAEDDENLESDSGRVANYFGKLKSKLSIIRNLNDQVLFIDQGNRPLFEDMTDSDARDNAPRTIFIISMYADSQPRGMAVAISVKCEKISTLSAENKIISFKEMNPPDNIKDTKSDIIFFQRSVPGHDNKMQFESSSYEGYFLAAEKERDLFKLILKKEDELGDRSIMFTVQNED
Turning to B2, the Kd came to 586 nM.

B3: C316 + Matriptase (ligand)
chain: MAAEPVEDNSINFVAMKFIDNTLYFIAEDDENLESDSGRVANLVGYFGKLKSKLSIIRNLNDQVLFIDQGNRPLFEDMTDSDARDNAPRTIFIISMYADSQPRGMAVAISVKCEKISTLSAENKIISFKEMNPPDNIKDTKSDIIFFQRSVPGHDNKMQFESSSYEGYFLAAEKERDLFKLILKKEDELGDRSIMFTVQNED
Consider B3, for which the Kd is 723 nM.

B4: C324 + MMP9 (ligand)
chain: YFGKLKSKLSIIRNLNDQVLFIDQGNRPLFEDMTDSDARDNAPRTIFIISMYADSQPRGMAVAISVKCEKISTLSAENKIISFKEMNPPDNIKDTKSDIIFFQRSVPGHDNKMQFESSSYEGYFLAAEKERDLFKLILKKEDELGDRSIMFTVQNED
B4 gave a Kd of 36.5 nM.

B5: C326 (ligand)
chain: MAAEPVEDNSINFVAMKFIDNTLYFIAEDDENLESDRGRRVANPLGLAGSGYFGKLKSKLSIIRNLNDQVLFIDQGNRPLFEDMTDSDARDNAPRTIFIISMYADSQPRGMAVAISVKCEKISTLSAENKIISFKEMNPPDNIKDTKSDIIFFQRSVPGHDNKMQFESSSYEGYFLAAEKERDLFKLILKKEDELGDRSIMFTVQNED
In turn, B5 registered a Kd of 2100 nM.

B6: C326 + MMP9 (ligand)
chain: LAGSGYFGKLKSKLSIIRNLNDQVLFIDQGNRPLFEDMTDSDARDNAPRTIFIISMYADSQPRGMAVAISVKCEKISTLSAENKIISFKEMNPPDNIKDTKSDIIFFQRSVPGHDNKMQFESSSYEGYFLAAEKERDLFKLILKKEDELGDRSIMFTVQNED
In turn, B6 had a Kd of 139 nM.

B7: C323 (ligand)
chain: MAAEPVEDNSINFVAMKFIDNTLYFIAEDDENLESDRGRRVANLVGGSGYFGKLKSKLSIIRNLNDQVLFIDQGNRPLFEDMTDSDARDNAPRTIFIISMYADSQPRGMAVAISVKCEKISTLSAENKIISFKEMNPPDNIKDTKSDIIFFQRSVPGHDNKMQFESSSYEGYFLAAEKERDLFKLILKKEDELGDRSIMFTVQNED
As to B7, the Kd came to 8550 nM.

B8: C325 (ligand)
chain: B7 chain with V41P, A42L, N43G, V45A
For the molecule B8, the Kd stood at 1880 nM.

Broadly, the Kd is the constant that tells how readily two partners part at equilibrium.
